According to US20250074980A1 (BRIGHAM AND WOMEN S HOSPITAL, published 2025):
Where two headings read alike, the source gives them in different places.

Key:
His-tagged CEACAM1 [1] = target: T1, His-tagged CEACAM1 (human, UniProt P13688 35-428); test: SPR single-cycle, supernatant IgG captured
T1 construct: 45 kDa SPR analyte; also called CEACAM1-HIS; CEACAM1 analyte
T1 sequence: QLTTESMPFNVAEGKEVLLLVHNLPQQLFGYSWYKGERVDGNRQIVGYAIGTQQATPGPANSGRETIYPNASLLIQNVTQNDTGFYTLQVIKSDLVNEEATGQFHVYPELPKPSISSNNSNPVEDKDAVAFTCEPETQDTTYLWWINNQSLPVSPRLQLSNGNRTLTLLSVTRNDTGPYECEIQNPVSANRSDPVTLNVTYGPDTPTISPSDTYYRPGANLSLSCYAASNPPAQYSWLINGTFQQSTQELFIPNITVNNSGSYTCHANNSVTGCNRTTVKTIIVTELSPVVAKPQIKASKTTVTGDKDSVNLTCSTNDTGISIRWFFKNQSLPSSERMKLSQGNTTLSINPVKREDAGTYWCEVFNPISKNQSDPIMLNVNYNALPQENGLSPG
Description: In order to assess the binding of the humanized, affinity matured reformatted lead IgGs, single-cycle kinetics analysis was performed on crude supernatants using a Biacore T200 running Biacore T200 Control Software V2.0.1 and Biacore T200 Evaluation Software V3.0. Antibodies were diluted in HBS-P+ to a final concentration of 0.5 μg/ml. At the start of each cycle, antibodies were loaded onto Fc2, Fc3 and Fc4 of the Protein A chip. IgGs were captured at a flow rate of 10 μl/min to give an immobilisation level (RL) of ˜100 RU (a level calculated to obtain a Rₘₐₓ of ˜50-150 RU once the analyte is bound). The surface was then allowed to stabilize. Single-cycle kinetics data was obtained with CEACAM1 as the analyte at a flow rate of 80 μl/min to minimize any potential mass transfer effects. Multiple repeats with the parent (VH1/Vκ8 S29A) antibody were performed to check the stability of the surface and analyte over the kinetic cycles. The signal from the reference channel Fc1 (no antibody) was subtracted from that of Fc2, Fc3 and Fc4 to correct for differences in non-specific binding to the reference surface. A three point, two-fold dilution range from 70 nM to 280 nM CEACAM1 without regeneration between each concentration was used. The signal from each antibody blank run (no CEACAM1) was subtracted to correct for differences in surface stability. The association phase for the three injections of increasing concentrations of CEACAM1 was monitored for 80 seconds each time and a single dissociation phase was measured for 150 seconds following the last injection of CEACAM1. Regeneration of the Protein A surface was conducted using two injections of 10 mM glycine-HCL pH 1.5 followed by a stabilization period of 250 seconds.

His-tagged CEACAM1 [2] = target: T1, His-tagged CEACAM1; test: SPR single-cycle, supernatant IgG captured; remark: listed apart in the source
Method in brief: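 IgG came from supernatants of HEK EBNA cells transiently transfected by PEI in 6-well plates and harvested 5-7 days later. Supernatants were quantified by ELISA and filtered. Single-cycle surface plasmon resonance was run on a Biacore T200 at 25° C in HBS-P+ (pH 7.4), with IgG captured on Protein A and His-tagged CEACAM1 as analyte. Kon, koff and Kd were fitted, and relative KD was calculated against the parent antibody assayed in the same experiment.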

Binder | Kd (His-tagged CEACAM1 [1]) [nM] | koff (His-tagged CEACAM1 [1]) [s⁻¹] | kon (His-tagged CEACAM1 [1]) [M⁻¹ s⁻¹] | relative KD to parent (His-tagged CEACAM1 [1]) | Kd (His-tagged CEACAM1 [2]) [nM] | koff (His-tagged CEACAM1 [2]) [s⁻¹] | kon (His-tagged CEACAM1 [2]) [M⁻¹ s⁻¹] | relative KD to parent (His-tagged CEACAM1 [2])
CP08G10/Vκ8 S29A (antibody, IgG4, V domains shown, IgG4 (S241P), kappa) VH: EVQLLESGGGLVQPGGSLRLSCAASGFIFSSHGMSWVRQAPGKGLEWVATISSGGTYTYYPDSVKGRFTISRDNSKNTLYLQMNSLKAEDTAMYYCARHDFDYFPAWFAFWGQGTLVTVSS VL: EIVLTQSPATLSLSPGERATLSCRANSAVSYMYWYQQKPGQAPRPWIYLTSNRATGVPARFSGSGSGTDYTLTISSLEPEDFAVYYCQQWSSNPPTFGQGTKLEIK | 630 | 0.055 | 87000 | 0.9 | – | – | – | –
CP08H01/Vκ8 S29A (antibody, IgG4, V domains shown, IgG4 (S241P), kappa) VH: EVQLLESGGGLVQPGGSLRLSCAASGFIFSSHGMSWVRQAPGKGLEWVATISSGGTYTYYPDSVKGRFTISRDNSKNTLYLQMNSLKAEDTAMYYCAKHPPDYFAAWFAYWGQGTLVTVSS VL: EIVLTQSPATLSLSPGERATLSCRANSAVSYMYWYQQKPGQAPRPWIYLTSNRATGVPARFSGSGSGTDYTLTISSLEPEDFAVYYCQQWSSNPPTFGQGTKLEIK | 420 | 0.087 | 210000 | 1.3 | – | – | – | –
VH1/CP09F05 (antibody, IgG4, V domains shown, IgG4 (S241P), kappa) VH: EVQLLESGGGLVQPGGSLRLSCAASGFIFSSHGMSWVRQAPGKGLEWVATISSGGTYTYYPDSVKGRFTISRDNSKNTLYLQMNSLKAEDTAMYYCARHDFDYDAAWFAYWGQGTLVTVSS VL: EIVLTQSPATLSLSPGERATLSCRANSAVSYMYWYQQKPGQAPRPWIYLTSNRATGVPARFSGSGSGTDYTLTISSLEPEDFAVYYCQQNTALPFTFGQGTKLEIK | 1600 | 0.055 | 35000 | 0.4 | – | – | – | –
CP09B03/CP08D02 (antibody, IgG4, V domains shown, IgG4 (S241P), kappa) VH: EVQLLESGGGLVQPGGSLRLSCAASGFTFNAHAISWVRQAPGKGLEWVATISSGGTYTYYPDSVKGRFTISRDNSKNTLYLQMNSLKAEDTAMYYCARHDFDYDAAWFAYWGQGTLVTVSS VL: EIVLTQSPATLSLSPGERATLSCRANSAVSYMYWYQQKPGQAPRPWIYLTSNRATGVPARFSGSGSGTDYTLTISSLEPEDFAVYYCQQWTSFPPTFGQGTKLEIK | – | – | – | – | 290 | 0.059 | 210000 | 1.9
CP09B03/CP08F05 (antibody, IgG4, V domains shown, IgG4 (S241P), kappa) VH: EVQLLESGGGLVQPGGSLRLSCAASGFTFNAHAISWVRQAPGKGLEWVATISSGGTYTYYPDSVKGRFTISRDNSKNTLYLQMNSLKAEDTAMYYCARHDFDYDAAWFAYWGQGTLVTVSS VL: EIVLTQSPATLSLSPGERATLSCRANSAVSYMYWYQQKPGQAPRPWIYLTSNRATGVPARFSGSGSGTDYTLTISSLEPEDFAVYYCQQWTSNPPTFGQGTKLEIK | – | – | – | – | 150 | 0.017 | 110000 | 3.6
CP09G03/Vκ8 S29A (antibody, IgG4, V domains shown, IgG4 (S241P), kappa) VH: EVQLLESGGGLVQPGGSLRLSCAASGFTFNAHAMSWVRQAPGKGLEWVATISSGGTYTYYPDSVKGRFTISRDNSKNTLYLQMNSLKAEDTAMYYCARHDFDYDAAWFAYWGQGTLVTVSS VL: EIVLTQSPATLSLSPGERATLSCRANSAVSYMYWYQQKPGQAPRPWIYLTSNRATGVPARFSGSGSGTDYTLTISSLEPEDFAVYYCQQWSSNPPTFGQGTKLEIK | 350 | 0.038 | 110000 | 1.5 | – | – | – | –
CP09A04/Vκ8 S29A (antibody, IgG4, V domains shown, IgG4 (S241P), kappa) VH: EVQLLESGGGLVQPGGSLRLSCAASGFSFNAHAMSWVRQAPGKGLEWVATISSGGTYTYYPDSVKGRFTISRDNSKNTLYLQMNSLKAEDTAMYYCARHDFDYDAAWFAYWGQGTLVTVSS VL: EIVLTQSPATLSLSPGERATLSCRANSAVSYMYWYQQKPGQAPRPWIYLTSNRATGVPARFSGSGSGTDYTLTISSLEPEDFAVYYCQQWSSNPPTFGQGTKLEIK | 400 | 0.036 | 90000 | 1.4 | – | – | – | –
VH1/CP08G01 (antibody, IgG4, V domains shown, IgG4 (S241P), kappa) VH: EVQLLESGGGLVQPGGSLRLSCAASGFIFSSHGMSWVRQAPGKGLEWVATISSGGTYTYYPDSVKGRFTISRDNSKNTLYLQMNSLKAEDTAMYYCARHDFDYDAAWFAYWGQGTLVTVSS VL: EIVLTQSPATLSLSPGERATLSCRANSAVSYMYWYQQKPGQAPRPWIYLTSNRATGVPARFSGSGSGTDYTLTISSLEPEDFAVYYCQQNTNLPFTFGQGTKLEIK | 400 | 0.047 | 120000 | 1.5 | – | – | – | –
CP09D03/Vκ8 S29A (antibody, IgG4, V domains shown, IgG4 (S241P), kappa) VH: EVQLLESGGGLVQPGGSLRLSCAASGFTFSSHAISWVRQAPGKGLEWVATISSGGTYTYYPDSVKGRFTISRDNSKNTLYLQMNSLKAEDTAMYYCARHDFDYDAAWFAYWGQGTLVTVSS VL: EIVLTQSPATLSLSPGERATLSCRANSAVSYMYWYQQKPGQAPRPWIYLTSNRATGVPARFSGSGSGTDYTLTISSLEPEDFAVYYCQQWSSNPPTFGQGTKLEIK | 310 | 0.033 | 110000 | 1.8 | – | – | – | –
CP09B03/CP08E01 (antibody, IgG4, V domains shown, IgG4 (S241P), kappa) VH: EVQLLESGGGLVQPGGSLRLSCAASGFTFNAHAISWVRQAPGKGLEWVATISSGGTYTYYPDSVKGRFTISRDNSKNTLYLQMNSLKAEDTAMYYCARHDFDYDAAWFAYWGQGTLVTVSS VL: EIVLTQSPATLSLSPGERATLSCRANSAVSYMYWYQQKPGQAPRPWIYLTSNRATGVPARFSGSGSGTDYTLTISSLEPEDFAVYYCQQWTTFPPTFGQGTKLEIK | – | – | – | – | 250 | 0.046 | 180000 | 2.2
CP09B03/CP08G09 (antibody, IgG4, V domains shown, IgG4 (S241P), kappa) VH: EVQLLESGGGLVQPGGSLRLSCAASGFTFNAHAISWVRQAPGKGLEWVATISSGGTYTYYPDSVKGRFTISRDNSKNTLYLQMNSLKAEDTAMYYCARHDFDYDAAWFAYWGQGTLVTVSS VL: EIVLTQSPATLSLSPGERATLSCRANSAVSYMYWYQQKPGQAPRPWIYLTSNRATGVPARFSGSGSGTDYTLTISSLEPEDFAVYYCQQWTAFPPTFGQGTKLEIK | – | – | – | – | 300 | 0.037 | 130000 | 1.9
CP09F03/Vκ8 S29A (antibody, IgG4, V domains shown, IgG4 (S241P), kappa) VH: EVQLLESGGGLVQPGGSLRLSCAASGFTFNNHGMSWVRQAPGKGLEWVATISSGGTYTYYPDSVKGRFTISRDNSKNTLYLQMNSLKAEDTAMYYCARHDFDYDAAWFAYWGQGTLVTVSS VL: EIVLTQSPATLSLSPGERATLSCRANSAVSYMYWYQQKPGQAPRPWIYLTSNRATGVPARFSGSGSGTDYTLTISSLEPEDFAVYYCQQWSSNPPTFGQGTKLEIK | 1000 | 0.076 | 74000 | 0.5 | – | – | – | –
CP09B02/Vκ8 S29A (antibody, IgG4, V domains shown, IgG4 (S241P), kappa) VH: EVQLLESGGGLVQPGGSLRLSCAASGFTFTSHAISWVRQAPGKGLEWVATISSGGTYTYYPDSVKGRFTISRDNSKNTLYLQMNSLKAEDTAMYYCARHDFDYDAAWFAYWGQGTLVTVSS VL: EIVLTQSPATLSLSPGERATLSCRANSAVSYMYWYQQKPGQAPRPWIYLTSNRATGVPARFSGSGSGTDYTLTISSLEPEDFAVYYCQQWSSNPPTFGQGTKLEIK | 340 | 0.04 | 120000 | 1.6 | – | – | – | –
CP09E03/Vκ8 S29A (antibody, IgG4, V domains shown, IgG4 (S241P), kappa) VH: EVQLLESGGGLVQPGGSLRLSCAASGFTFSAHAISWVRQAPGKGLEWVATISSGGTYTYYPDSVKGRFTISRDNSKNTLYLQMNSLKAEDTAMYYCARHDFDYDAAWFAYWGQGTLVTVSS VL: EIVLTQSPATLSLSPGERATLSCRANSAVSYMYWYQQKPGQAPRPWIYLTSNRATGVPARFSGSGSGTDYTLTISSLEPEDFAVYYCQQWSSNPPTFGQGTKLEIK | 400 | 0.037 | 110000 | 1.6 | – | – | – | –
VH1/CP08G02 (antibody, IgG4, V domains shown, IgG4 (S241P), kappa) VH: EVQLLESGGGLVQPGGSLRLSCAASGFIFSSHGMSWVRQAPGKGLEWVATISSGGTYTYYPDSVKGRFTISRDNSKNTLYLQMNSLKAEDTAMYYCARHDFDYDAAWFAYWGQGTLVTVSS VL: EIVLTQSPATLSLSPGERATLSCRANSAVSYMYWYQQKPGQAPRPWIYLTSNRATGVPARFSGSGSGTDYTLTISSLEPEDFAVYYCQQWTNNPPTFGQGTKLEIK | 2300 | 0.052 | 23000 | 0.3 | – | – | – | –
